The text below walks through data of article PMC10192046.

As usually defined, the stoichiometry N is a count of units in the complex or per binding partner.

The assay has as its target T1, interferon regulatory factor 3 (human (endogenous in THP-1)), Q14653.
T1 chain: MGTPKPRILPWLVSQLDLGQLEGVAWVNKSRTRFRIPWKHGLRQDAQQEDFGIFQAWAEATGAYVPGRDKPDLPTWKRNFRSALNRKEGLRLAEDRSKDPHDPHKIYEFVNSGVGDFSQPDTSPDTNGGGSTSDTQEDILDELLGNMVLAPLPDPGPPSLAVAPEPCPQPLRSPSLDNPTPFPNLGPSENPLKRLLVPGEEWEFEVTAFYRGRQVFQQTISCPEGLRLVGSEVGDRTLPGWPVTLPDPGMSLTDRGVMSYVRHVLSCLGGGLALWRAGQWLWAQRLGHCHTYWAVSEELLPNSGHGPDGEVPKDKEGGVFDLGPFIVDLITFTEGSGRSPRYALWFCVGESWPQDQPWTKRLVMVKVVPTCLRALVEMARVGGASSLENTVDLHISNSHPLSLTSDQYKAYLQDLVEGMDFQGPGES
Put plainly: native gel or EMSA. Conditions: remark: other sources report otherwise. For orientation: Mobility shift assays separate free from complexed probe on a gel.

B1: interferon regulatory factor 3, Q14653 1-427 (natural protein)
chain: T1 chain
B1 had a stoichiometry N of 2.
